# Data: paper PMC5966295, “Crystal structures of murine and human Histamine-Releasing Factor (HRF/TCTP) and a model for HRF dimerisation in mast cell activation” (Molecular Immunology, 2018)
# B1: human Histamine-Releasing Factor (natural protein, UniProt P13693 1-172, looked up)
# chain: MIIYRDLISHDEMFSDIYKIREIADGLCLEVEGKMVSRTEGNIDDSLIGGNASAEGPEGEGTESTVITGVDIVMNHHLQETSFTKEAYKKYIKDYMKSIKGKLEEQRPERVKPFMTGAAEQIKHILANFKNYQFFIGENMNPDGMVALLDYREDGVTPYMIFFKDGLEMEKC
# notes: Histamine-Releasing Factor (HRF/TCTP), human, wild type; Met1 to Cys172, followed by the C-terminal purification tag Leu173-His180; The tag is ordered in the crystals and contributes about 25% of the hHRF-2 dimer interface; In hHRF-2 the two chains are joined by an intermolecular disulphide bond Cys172-Cys172; also called hHRF; HRF; source: prepared according to a previously described protocol …
# Biological target: the molecule itself
# Assay: crystal structure; hHRF-2 crystal form, 1.4 Å; crystals grown at 18 °C in 0.1 M MES pH6.0 and 20% (w/v) PEG 2000 MME; two molecules in the asymmetric unit, disulphide-linked dimer
protein,measurement,value
B1,stoichiometry N,2
